Fluorescent area of the SIS membrane data for 4 molecules are collected here from patent publication US20240424167A1.

No end group written: not given here. Some results are limits rather than exact numbers.

For experiment [1], the target named is type I collagen of the SIS membrane. Description: CLSM, SIS membrane soaked in 200 µM chimeric peptide solution (H-pSIS).
The target of experiment [2] is type III collagen of the SIS membrane. The description is as above.

B1: P9 polypeptide (TKKTLRT+linker-1+Hst1) (peptide)
peptide: TKKTLRTGGGGSGGGGSSHREFPFYGDYGS
modifications: also: fluorescent label FITC or rhodamine B (paragraphs differ), position not given here
B1 displayed a fluorescent area of the SIS membrane in experiment [1] of more than 85%.

B2: P11 polypeptide (KELNLVY+linker-1+Hst1) (peptide)
peptide: KELNLVYGGGGSGGGGSSHREFPFYGDYGS
modifications: also: fluorescent label rhodamine B or FITC (paragraphs differ), position not given here
Take B2: the fluorescent area of the SIS membrane in experiment [2] is more than 85%.

B3: P10 polypeptide (TKKTLRT+linker-1+JH8194) (peptide)
peptide: TKKTLRTGGGGSGGGGSKRLFRRWQWRMKKY
modifications: also: fluorescent label FITC or rhodamine B (paragraphs differ), position not given here
With B3, in experiment [1], the fluorescent area of the SIS membrane was more than 85%.

B4: P12 polypeptide (KELNLVY+linker-1+JH8194) (peptide)
peptide: KELNLVYGGGGSGGGGSKRLFRRWQWRMKKY
modifications: also: fluorescent label rhodamine B or FITC (paragraphs differ), position not given here
On to B4, for which the fluorescent area of the SIS membrane in experiment [2] was more than 85%.
